Data from the RNAGym collection of RNA variant scans (doi:10.7554/elife.90254).

B1: OR4K15 (parent)
chain: GUUAACGGUCAUAGGCCAUGGAAACUAGGAGCACCAUUUCGCUGCCAGUGAAGAAAUGAACAAAGAAAAUCUGGGCCAGGCAGGCAUCAAAAGAAAUAGUCUUGCGCUCAACCAGAAAGUCUGUAAUCAUUUUAAGGGUA

Variants of: B1
Experiment: self-cleavage, relative activity (ratio to wild type); higher = more cleavage; in vitro, sequencing; the parent is a self-cleaving ribozyme

Variant | self-cleavage
U12A C34U | 0.53
G29C U37C | 1.25
A36G A82C | 0.2
A92U U100C | 2.23
U120C U130C | 0.3
A52G A110C | 0.26
A86U U131C | 1.77
A56G U72A | 0.26
A36G U108C | 0.01
U38C A90U | 2.23
U43G A114G | 0.27
A56G U130C | 1.63
A63G A135G | 1.35
U39C C45G | 1.5
A55G U122C | 1.2
A24G A117G | 1.45
U103C A117C | 0.29
A30G A134G | 0.98
A92C A96G | 1.73
U43C A95G | 2.15
A86U A90G | 1.3
A13G C109A | 0.6
G74C A89G | 0.07
A5G U38C | 1.14

Variant | self-cleavage
A78U U102A | 0.16
A24C U131C | 1.82
G75U U87C | 0.11
A92G U122G | 2.31
A68U A82U | 0.25
U100C U122C | 1.66
A69U U120A | 1.84
A66U U127C | 0.58
U103A U108A | 0.02
A60G A134G | 0.69
U132C | 1.05
G29A A129G | 1.59
A52U A69G | 2.44
A30U U57C | 1.31
G53A A89U | 2.31
A13G A52G | 1.22
A66U G80A | 0.05
U37C A96C | 0.89
A90U A135G | 2.04
G31C U108C | 0.03
A78U C105U | 0.03
U19C A89U | 1.15
A22G U72C | 0.33
A18U A78U | 0.45

Variant | self-cleavage
A22U U139A | 1.63
A54G A90U | 1.57
A22G A30G | 0.99
A68G G138A | 1.67
A92C U103C | 0.93
U124A U132G | 0.61
U130C G138A | 1.41
U9A A62U | 0.88
U38A U108G | 0.01
A24G U100C | 1.97
A89G C105U | 0.07
A67G A68C | 0.53
G7A U100C | 2.22
U2C U131G | 1.08
A13U A66G | 1.49
A91G A95C | 0.94
U38A A68G | 0.82
A18U C42U | 1.18
A59G A116G | 0.77
U57G A94G | 1.41
A90G A116G | 0.8
A55U G58U | 1.98
U12C A96U | 1.32
A60U A95G | 1.6

Variant | self-cleavage
A86G U124C | 0.3
U12A A91G | 1.57
G44A A59G | 1.56
G41A A110C | 0.4
G8A A117U | 1.67
U103C U108A | 0.02
A66G A96G | 1.87
G41U A78G | 0.36
G14A A110G | 0.13
A11U A98U | 1.82
A52G U100A | 0.65
U100C A111G | 0.01
A4G C88U | 0.96
C46U A82U | 0.14
A4G A11G | 0.86
A55G U87A | 1.33
A68U A92G | 0.44
G29A A92U | 1.86
U19C G136A | 1.38
A23G A140G | 1.61
G7U U38C | 0.4
U124C U132G | 0.76
A51G A52G | 1.46
A22G U26C | 1.02

Variant | self-cleavage
G15U A82U | 0.23
A47U A52U | 1.2
A47U A52G | 0.81
C32A G79A | 0.17
U26C G58U | 1.48
A22U U57G | 1.17
U19C A129C | 1.72
G41A U43C | 1.72
A36G G84A | 1.88
A27C A91G | 0.64
A33G U102A | 0.34
U43C A116C | 0.07
A24C U26C | 1.52
A82U U102C | 0.33
A90G U139C | 1.2
A56U A63G | 2.61
C16U A111G | 0.05
A89G U102C | 1.68
C107U A118U | 0.01
A13G G93U | 0.86
U39C A69C | 1.33
U12C A18U | 1.3
C107U U130C | 0
A47U C105U | 0.14

Variant | self-cleavage
U102A U130A | 0.32
A62C A96G | 2.59
A55U A68G | 1.44
A67U U130A | 1.56
U57C A78U | 0.26
A111G A129G | 0.01
C35U A60G | 0.76
C45U A95G | 1.99
C17U | 0.8
A94U U103C | 0.46
G1U A24G | 1.6
U70C A134G | 0.72
C42U A62G | 1.26
A22G U97C | 1.52
U108A A126G | 0.01
U19C A36U | 1.76
A23G G80A | 0.31
A47U U120C | 0.28
A60U A134G | 1.84
C85U U87C | 1.47
A54G G106A | 0.02
A66G A69G | 1.02
C16G A89G | 0.74
A86C U127A | 1.62

Variant | self-cleavage
U39A A64G | 0.93
C105A U122A | 0
U12C U100G | 1.34
A62G A66U | 1.78
A89U A111U | 0.13
A47U A110C | 0.13
A13U A22G | 1.38
U39A U127A | 1.46
A68U G137A | 1.39
A62G U100A | 1.12
A82U U87A | 0.02
U2C A54G | 0.68
A86G A92G | 1.07
A82U A90U | 0.08
C121A | 2.65
U19C A62U | 1.48
A18G G79A | 0.24
A36G A63C | 2.09
A63G U97C | 2.55
A63U U127C | 1.25
U108C U131A | 0.02
A30G U97C | 1.23
A24G A66U | 1.11
C6U U131C | 0.08

Variant | self-cleavage
A22G C77U | 1.62
U43A A78G | 0.14
A66U A86C | 1.36
U108G A135G | 0.01
A27G U103A | 0.45
U12C U120C | 0.75
C40A A59U | 2
A67G A89G | 0.82
G20A A78G | 0.3
U9C A91G | 1.2
A118G A126U | 1.22
U19A U108C | 0.03
A27G A126G | 0.8
A52C U87C | 1.09
A24U U122C | 1.08
A56G A140G | 1.78
U122A A140G | 1.17
U2A U87A | 1.32
A51C A91G | 1.33
U2A A78G | 0.46
U38C | 1.45
G20U A129G | 1.17
A22G U57A | 1.15
A90U A114U | 0.04

Variant | self-cleavage
A18G A56G | 1.27
C81U U108A | 0.02
A4G U131C | 1.45
A59G U120C | 0.97
C88U U120C | 1.46
A54G A96G | 1.5
A52G G75A | 0.23
U12C U37C | 1.04
A5G A36G | 0.8
U2C A67G | 1.13
G14U A116G | 0.63
A5G A116G | 0.47
A27C A36C | 2.11
G21C | 0.85
C17U U131A | 0.93
U19A U26A | 1.58
U43A A91G | 0.55
U37C A95G | 2.37
A11U A78G | 0.31
A68U A125C | 1.36
A33G A96C | 0.76
A60U U87C | 1.43
A98G U108C | 0
U26C U124C | 1.05

Variant | self-cleavage
U2A A125U | 2.08
U37G A118G | 0.99
U43G A54U | 1.97
A18G C71U | 0.22
G14U U102A | 0.36
U102A U131C | 0.62
C46A A110U | 1.53
A94G A111G | 0.03
U2A G104A | 0.16
A4G A86G | 0.72
A69G A98G | 0.49
U2C U37G | 0.75
U57C U103G | 0.02
A23G G83A | 1.24
A23U A51G | 1.24
A24G A110U | 0.99
U39A A96G | 1.56
A27G A114U | 0.16
A66C A67G | 0.46
A4C C81U | 0.79
A52C A82G | 0.55
U2C A60U | 1.67
G50U A96G | 2.5
A66G A116G | 0.6

Variant | self-cleavage
A134C | 1.35
A60G A67C | 0.77
A18G A59U | 1.65
U102C U108C | 0.01
U3A A116G | 0.32
A92G G119A | 2.3
A22U A52G | 1.63
U49G U130A | 0.36
G83A A135G | 1.3
U43C U124C | 1.13
G7A A86U | 1.86
U87C A140G | 1.49
U97C A126U | 0.44
C25U A30G | 1.24
C81A | 0.25
A94G U132C | 1.52
A82G U139G | 0.26
A69G U108A | 0.02
A82C A96G | 0.11
A125G G138C | 0.83
G41A A117G | 0.44
A33U A94U | 2.41
A11U A18U | 1.82
C17A A24G | 1.64

Variant | self-cleavage
U12C A118G | 0.61
A27G A30C | 1.14
U2C U124C | 0.42
C25A | 0.92
A56C A68G | 1.59
G41A C113U | 0.02
U38A A54G | 0.28
A22G A63C | 1.25
A22G A95G | 1.75
A63U A134G | 0.32
A98G U124A | 0.07
A5U U9C | 1.27
A33G A110G | 0.15
A82G U102A | 0.34
A63G U131C | 1.2
G1A U122C | 0.48
U19A A82G | 0.68
A54C A116G | 0.17
A129G G137A | 0.54
G8U U108A | 0
A62U G136A | 1.59
A82G A111U | 0.09
A82G A111G | 0.04
U37C A56G | 0.73

Variant | self-cleavage
U38G A116G | 1.67
G74U U132A | 0.3
G48A A95G | 1.29
A27G A33C | 1.32
A92U A94U | 2.03
G14A A78U | 0.22
A62U U103G | 0.07
A62U U103C | 1.23
A4G U127C | 0.38
A5U U131C | 1.52
C6U A23G | 1.15
A118G U127C | 0.24
A23U U132C | 1.03
U9A U120C | 0.79
A78U A140G | 0.34
A27U C61U | 0.58
A27G A54G | 1.37
U39A U103C | 2.1
A67G A110G | 0.11
C25A A135G | 1.61
U139C A140G | 1.57
A13U A117G | 2.05
G7U A66G | 1.42
A66C U131A | 1.1

Variant | self-cleavage
A23G G137A | 1.04
G74A U102C | 0.05
U108C A111U | 0
C16U A23U | 1.24
A63G A117G | 1.69
G84U A126G | 0.45
A27G A125G | 0.26
A4G A51G | 1.01
A90G A98U | 1.62
A24U U133A | 1.54
A66U U122C | 1.09
U39A A68G | 1.32
A52U A59U | 1.99
U26C U57C | 1.44
U97C | 0.71
U9A U124C | 0.91
A30G A54U | 1.33
A62U U102A | 0.57
U38C U43A | 2.13
A55U U57C | 1.76
C6G U19A | 1.65
A33G A51U | 0.82
